Usually stoichiometry N stands for the number of molecules, sites or subunits per partner or assembly.

The data set concerns the molecule itself. Kind of data set: SEC-MALS; Superdex 200 HR 10/30, 20 mM Tris HCl, 150 mM NaCl, without DTT; mini-DAWN EOS and Optilab DSP detectors. A general note: SEC sorts molecules by how far they enter the pores of the column.

B1: mouse CARMA1 CARD (amino acids 14-109) with C-terminal His-tag (domain or fragment, UniProt Q8CIS0 14-109, looked up)
chain: TLKDEEEALWDNVECNRHMLSRYINPAKLTPYLRQCKVIDEQDEDEVLNAPMLPSKINRAGRLLDILHTKGQRGYVVFLESLEFYYPELYKLVTGK
notes: CARMA1 (CARD11), mouse, CARD domain, amino acids 14-109; the solution experiments used the plain protein; Model built from residue 22 to 108, loop 64-70 missing; Vector pOKD (home-made); also called CARD11 CARD; not shown: His-tag, C-terminal, kept
For the protein B1, the “stoichiometry N” value worked out at 2.

The values are drawn from publication PMC3818214, “Novel Disulfide Bond-Mediated Dimerization of the CARD Domain Was Revealed by the Crystal Structure of CARMA1 CARD” (PLoS ONE, 2013).
